Common to all, as to experiment: cell-based or functional assay
Test [1] has as its target VSV-G fused with GFP11 at its C terminus (VSV-G-GFP11) (Vesicular Stomatitis Virus (Indiana strain)) (UniProt P03522).
Test [2] has the same target. This is another data set of the same source.
Test [3] addresses superfolder GFP tagged VSV-G (VSV-G-sfGFP) (Vesicular Stomatitis Virus (Indiana strain)) (UniProt P03522).

Read-outs that look alike come from different tables or passages of the source.

Consider “Cre recombinase fused with GFP1-10 (Cre-GFP1-10) (from UniProt P06956 1-343)”, for which the results for the 293ColorSwitch cells switched to GFP in test [1], in test [2] and in test [3] were more than 80%, 66.9% and 2.6%, respectively.

For the origin of these results see patent publication US20210309702A1.
